Assay results as given in PMC3526290.

System: H3/H4 (FM label on H4 C71) (Xenopus laevis)
Experiment: EMSA
Details: 0.2 uM H3/H4, 0.4 uM DNA, no chaperone, disome and tetrasome, EMSA deposition: 10 mM Tris, 150 mM NaCl, 0.5 mM TCEP, pH 8.0, on ice, 0.2x TBE native gel, FRET: 10 mM Tris pH 7.5, 150 mM KCl, 2 mM MgCl, 1% glycerol

For 80 bp 601 DNA, the binding signal was 44 % tetrasomes.
